Common to all, as to experiment: cell_activity
The test system of one data set is ZFN 34480 (synthetic). The settings on record: pair 34480/34481, A-genome; B 11946, D 11790; wheat protoplasts.
Another data set deals with ZFN 34457 (synthetic). The following applies: pair 34456/34457, A-genome; B 1716, D 10399; wheat protoplasts.
Another data set has as its system ZFN 34472 (synthetic). The following applies: pair 34472/34473, A-genome; B 100300, D 87770; wheat protoplasts.
Another data set concerns ZFN 29730 (synthetic). The settings on record: pair 29732/29730, D-genome, donor pDAS000152 10:1, SEC protoplasts; A 6717, B 6306.
The subject of a further data set is ZFN 34474 (synthetic). The following applies: pair 34474/34475, A-genome; B 251142, D 202711; wheat protoplasts.
In another data set the test system is ZFN 34483 (synthetic). The settings on record: pair 34482/34483, A-genome; B 33888, D 28719; wheat protoplasts.
In another data set the test system is ZFN 34481 (synthetic). The following applies: pair 34480/34481, A-genome; B 11946, D 11790; wheat protoplasts.
The next data set deals with ZFN 34477 (synthetic). The following applies: pair 34476/34477, A-genome; B 56001, D 44459; wheat protoplasts.
For another data set, the system named is ZFN 34482 (synthetic). The settings on record: pair 34482/34483, A-genome; B 33888, D 28719; wheat protoplasts.
The next data set relates to ZFN 34471 (synthetic). The following applies: pair 34470/34471, A-genome; B 156139, D 134694; wheat protoplasts.
In a further data set the test system is ZFN 34456 (synthetic). The settings on record: pair 34456/34457, A-genome; B 1716, D 10399; wheat protoplasts.
A further data set relates to ZFN 29732 (synthetic). The following applies: pair 29732/29730, D-genome, donor pDAS000152 10:1, SEC protoplasts; A 6717, B 6306.
The test system of another data set is ZFN 34476 (synthetic). The settings on record: pair 34476/34477, A-genome; B 56001, D 44459; wheat protoplasts.
A further data set relates to ZFN 34473 (synthetic). The settings on record: pair 34472/34473, A-genome; B 100300, D 87770; wheat protoplasts.
The test system of a further data set is ZFN 34470 (synthetic). The settings on record: pair 34470/34471, A-genome; B 156139, D 134694; wheat protoplasts.
The subject of a further data set is ZFN 34478 (synthetic). The following applies: pair 34478/34479, A-genome; B 2731, D 3069; wheat protoplasts.
The subject of the next data set is ZFN 34475 (synthetic). The settings on record: pair 34474/34475, A-genome; B 251142, D 202711; wheat protoplasts.
The test system of a further data set is ZFN 34479 (synthetic). The following applies: pair 34478/34479, A-genome; B 2731, D 3069; wheat protoplasts.

“ACCATGGGGATGGAGTCGAGGAGNGCGT (double strand) [34480 site]” showed an activity (NHEJ events per million reads) with ZFN 34480 (synthetic) of 11800.

Sequence “ACCTCCCCCGCCGTCGCATTCTCNGGCG (double strand) [34457 site]” gave an activity (NHEJ events per million reads) in the data set on ZFN 34457 (synthetic) of 12600.

“ACGCCGACGCGGCCGGACGCGCGGGCGT (double strand) [34472 site]”: the activity (NHEJ events per million reads) in the data set with ZFN 34472 (synthetic) is 120000.

Sequence “AGGCAGCACGTGCTCCTGATGCGGGACT (double strand) [29730 site]” registered an activity (ppm NHEJ editing) in the data set with ZFN 29730 (synthetic) of 7910.

In turn, “CAGACGCCGACGCGGCCGGACGCGCGGG (double strand) [34474 site]” came in with an activity (NHEJ events per million reads) with ZFN 34474 (synthetic) of 248000.

As for “CATCACGGGCCAGGTCCCCCGCCGCATG (double strand) [34483 site]”, the activity (NHEJ events per million reads) in the data set on ZFN 34483 (synthetic) is 28700.

Turning to “CCATCACGGGCCAGGTCCCCCGCCGCAT (double strand) [34481 site]”, the activity (NHEJ events per million reads) in the data set with ZFN 34481 (synthetic) was found to be 11800.

Turning to “CCTCCGGCCCGGGGGCCACCAACCTCGT (double strand) [34477 site]”, the activity (NHEJ events per million reads) in the data set on ZFN 34477 (synthetic) was determined as 48300.

With “CGACCATGGGGATGGAGTCGAGGAGNGC (double strand) [34482 site]”, the activity (NHEJ events per million reads) in the data set with ZFN 34482 (synthetic) was 28700.

In the case of “CGTCGGCGTCTGCGTCGCCACCTCCGGC (double strand) [34471 site]”, in the data set on ZFN 34471 (synthetic), the activity (NHEJ events per million reads) worked out at 178000.

With “CNGCGGCCATGGCGGCGGCGAGGGTTTG (double strand) [34456 site]”, the activity (NHEJ events per million reads) in the data set with ZFN 34456 (synthetic) is 12600.

Turning to “GATCCCAAGCGGTGGTGCTTTCAAGGAC (double strand) [29732 site]”, the activity (ppm NHEJ editing) in the data set on ZFN 29732 (synthetic) amounted to 7910.

With “GCGACGCAGACGCCGACGCGGCCGGACG (double strand) [34476 site]”, in the data set on ZFN 34476 (synthetic), the activity (NHEJ events per million reads) stood at 48300.

In the case of “GCGTCGCCACCTCCGGCCCGGGGGCCAC (double strand) [34473 site]”, the activity (NHEJ events per million reads) with ZFN 34473 (synthetic) turned out to be 120000.

In the data set with ZFN 34470 (synthetic), “GGCCGGACGCGCGGGCGTANCCGGACGC (double strand) [34470 site]” registered an activity (NHEJ events per million reads) of 178000.

In turn, “GGGATGGAGTCGAGGAGNGCGTCNGCGA (double strand) [34478 site]” displayed an activity (NHEJ events per million reads) with ZFN 34478 (synthetic) of 3070.

Regarding “GTCGCCACCTCCGGCCCGGGGGCCACCA (double strand) [34475 site]”, the activity (NHEJ events per million reads) in the data set with ZFN 34475 (synthetic) was 248000.

With “TGGTCGCCATCACGGGCCAGGTCCCCCG (double strand) [34479 site]”, the activity (NHEJ events per million reads) in the data set on ZFN 34479 (synthetic) is 3070.
